Test results taken from patent US10808017B2, “Ubiquitin variants and uses therof as 53BP1 inhibitors” (The Governing Council of the University of Toronto, priority 2016, dated 2020).

Target: T1, PHB (Homo sapiens, UniProt P35232)
T1 construct: endogenous in cells; host or cells: HEK293 Flp-In/T-REx
T1 sequence (P35232 1-272): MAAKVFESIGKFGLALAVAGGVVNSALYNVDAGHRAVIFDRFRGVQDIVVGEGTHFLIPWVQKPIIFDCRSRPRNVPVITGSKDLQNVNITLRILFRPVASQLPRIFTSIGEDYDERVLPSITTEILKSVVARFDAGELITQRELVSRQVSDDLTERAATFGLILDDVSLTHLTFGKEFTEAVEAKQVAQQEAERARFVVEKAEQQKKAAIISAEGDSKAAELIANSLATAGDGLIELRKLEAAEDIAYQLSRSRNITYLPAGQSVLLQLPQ
Assay: Flag IP-MS of i53/i53-DM baits: prey PHB
Assay type: binding
Details: 293T Flp-In/T-Rex extracts, LC-MS/MS, one column per replicate IP
Protocol: Following immunoprecipitation of Flag-tagged i53 and i-53-DM from HEK293 Flp-In/T-REx cells, peptides were identified using LC-MS/MS. Proteins were digested in solution with trypsin (Sigma, T7575-1KT) and dried to completeness. For LC-MS/MS analysis, peptides were reconstituted in 5% formic acid and loaded onto a 12-15 cm fused silica column with pulled tip packed in-house with 3.5 μm Zorbax C18 (Agilent Technologies, Calif., USA).
i53 and i53-DM precipitates were analyzed using an LTQ (Thermo Scientific) coupled to an Agilent 1100 Series HPLC (Agilent Technologies). Peptides were eluted from the column using a 90 min period cycle with a linear gradient from 0% to 40% ACN in 0.1% formic acid. Tandem MS spectra were acquired in a data-dependent mode for the top 5 (LTQ) most abundant ions using collision-induced dissociation. Acquired spectra were searched against the human Refseq_V53 database using Mascot (Matrix Science).
293T Flp-In/T-Rex cell lines were generated that expressed Flag-tagged i53 or i53-DM under the control of a tetracycline-inducible promoter as previously described. Nine IP-MS experiments were analyzed (3 biological replicate IPs each for control i53- and i53-DM expressing cell lines). The interacting proteins were identified by MASCOT to identify high-confidence interactors for i53. […]

Substance: i53: UbvG08 with C-terminal di-glycine removed and I44A mutation; genetically encoded inhibitor of 53BP1
- Total peptides, PHB: 2
